{"source": "paper PMC1257591", "about": "“In Vitro Inhibition of Human Hepatic and cDNA-Expressed Sulfotransferase Activity with 3-Hydroxybenzo[a]pyrene by Polychlorobiphenylols” (Environmental Health Perspectives, 2005)", "test_system": "T1, Oc1ccc2ccc3c4ccccc4cc4ccc1c2c43", "T1 construct": "made in house; host or cells: Escherichia coli", "assay": "Kinetics of 3-OH-BaP sulfonation by partially purified cDNA-expressed SULT1B1", "type": "biochemical, human", "settings": "other: apparent, 3-OH-BaP as substrate", "from_the_text": "The expression of human SULT1A1*1, SULT1A3, SULT1B1, and SULT1E1 in Escherichia coli has been described previously ([Dajani et al. 1998]; [Wang et al. 1998]). We grew E. coli cells containing the respective sulfotransferase genes as described previously ([Falany et al. 1990], [1994]), and prepared 100,000g supernatant fractions for use in inhibition studies and for partial purification of the SULT enzymes. We purchased expressed SULT1A1*2 cytosolic extract from PanVera (Madison, WI) and used it as supplied.\nThe 100,000g supernatant fractions of SULT1A1*1, SULT1A3, SULT1B1, and SULT1E1 were partially purified by chromatographic methods ([Falany et al. 1990], [1994]). After the last step, a 3′-phosphoadenosine 5′-phosphate (PAP)-agarose affinity column, we dialyzed the fractions eluted with PAP with three changes of buffer to remove PAP before the assay of SULT activity with 3-OH-BaP as substrate. We analyzed active fractions by SDS-PAGE ([Laemmli 1970]) to assess the purity of each SULT enzyme. We stained the gels with Coomassie R-250 reagent and determined the percentage of protein present as each respective SULT enzyme by scanning densitometry.\nWe determined SULT activity with 3-OH-BaP as substrate by a fluorimetric assay of BaP-3-SO4 product formation, as described previously ([Wang et al. 2004]). […] Duplicate tubes were prepared for each incubation condition. We examined the kinetics of sulfonation in three liver cytosol fractions by systematically varying the concentration of 3-OH-BaP or PAPS. When the variable substrate was 3-OH-BaP, we used 12 concentrations in the range from 0.035 to 2.00 μM, and the concentration of PAPS was kept constant at 10 μM. […]\nWe determined the kinetic parameters for 3-OH-BaP sulfonation by partially purified preparations of the cDNA-expressed SULT isozymes under incubation conditions similar to those used for liver cytosol. […]\nWe calculated the enzyme kinetic parameters from studies with variable concentrations of 3-OH-BaP using nonlinear regression analysis and GraphPad 4.0 software (GraphPad Software, San Diego, CA). […]"}
{"substance": "SULT1B1 (Homo sapiens)", "values": [{"measurement": "Km", "value": 2.00, "unit": "µM"}, {"measurement": "Vmax", "value": 0.0097, "unit": "µmol/min/mg"}, {"measurement": "Vmax/Km", "value": 4900, "unit": "µL/min/mg"}]}
